Experimental data published in patent US20200384061A1 (JCR PHARMACEUTICALS, published 2020).
Read-outs that look alike come from different tables or passages of the source. Blank lines part the entries; values can stand above or below the binder they belong to.

Tests used:
[1] = biological target: T1, recombinant monkey TfR (r monkey TfR, Sino Biological Inc.), extracellular region of cynomolgus monkey TfR … (cynomolgus monkey (Macaca fascicularis), UniProt Q5RDH6 89-760 (Pongo abelii entry)); assay: BLI (OctetRED96)
T1 construct: not shown: histidine tag added to the N-terminus
T1 chain: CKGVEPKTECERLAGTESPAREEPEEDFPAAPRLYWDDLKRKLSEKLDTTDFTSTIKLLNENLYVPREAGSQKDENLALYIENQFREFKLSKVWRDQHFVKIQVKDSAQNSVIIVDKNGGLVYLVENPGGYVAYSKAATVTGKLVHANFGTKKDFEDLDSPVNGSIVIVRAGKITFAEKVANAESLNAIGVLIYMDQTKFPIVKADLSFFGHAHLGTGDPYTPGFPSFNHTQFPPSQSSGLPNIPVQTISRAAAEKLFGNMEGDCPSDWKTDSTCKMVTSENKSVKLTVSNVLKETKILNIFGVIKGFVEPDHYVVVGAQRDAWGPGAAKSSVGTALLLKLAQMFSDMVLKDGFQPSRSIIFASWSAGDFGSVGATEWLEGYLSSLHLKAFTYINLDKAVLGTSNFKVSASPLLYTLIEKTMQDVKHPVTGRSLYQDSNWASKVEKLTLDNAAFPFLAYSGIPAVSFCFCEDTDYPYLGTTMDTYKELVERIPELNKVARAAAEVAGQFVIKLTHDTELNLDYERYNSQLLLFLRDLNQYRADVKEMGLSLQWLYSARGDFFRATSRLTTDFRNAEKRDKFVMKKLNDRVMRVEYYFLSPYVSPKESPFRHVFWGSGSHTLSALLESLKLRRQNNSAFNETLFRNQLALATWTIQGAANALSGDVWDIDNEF

[2] = biological target: T2, recombinant human TfR (r human TfR, Sino Biological Inc.), extracellular region of hTfR with N-terminal … (human, UniProt P02786 89-760); assay: BLI (OctetRED96); fusion protein captured via biotin-labeled anti-human BDNF antibody on SA biosensor, TfR in solution
T2 construct: also called r human TfR-ECD (Histag); recombinant hTfR; not shown: histidine tag added to the N-terminus
Experimental: (§1) Affinities of the hBDNF-anti-hTfR antibody (3N) 1 prepared in Example 22, to human TfR and to monkey TfR were measured. The measurement was generally performed by the following method. The biotin-labeled rabbit anti-human BDNF polyclonal antibodies (anti-human BDNF antibodies: PeproTech Corporation) was diluted with HBS-P+(1% BSA) (10 mM HEPES containing 150 mM NaCl, 50 μM EDTA, 0.05% Surfactant P20, and 1% BSA) to prepare the 15 μg/mL of solution, and the solution was designated as ligand solution 1. The purified product of an anti-hTfR antibody fusion BDNF (hBDNF-anti-hTfR antibody (3N) 1) was diluted with HBS-P+(1% BSA), and the solution was designated as ligand solution 2. And, as the reference control sample, the purified product of the hBDNF-anti-hTfR antibody (3) 1 obtained in Example 15-3 was also diluted with HBS-P+(1% BSA) to prepare ligand solution 3. r human TfR and r monkey TfR were respectively two fold serial diluted with HBS-P+(1% BSA) to prepare seven different concentrations of 0.78125 to 50 nM ([…] to 3.74 μg/mL). These TfR solution were used as TfR sample solutions.
(§2) The OctetRED96 was run under the condition shown in the following Table 15-3 to immobilize the anti-human BDNF antibody onto the sensor. Subsequently, after the OctetRED96 was run under the condition shown in the following Table 15-4 to obtain data, binding interaction curve was fitted to a 1:1 binding model or to a 2:1 binding model using the analysis software attached to the OctetRED96, the association rate constant (kon) and the dissociation rate constant (koff) of the anti-hTfR antibody fusion BDNF to r human TfR, and to r monkey TfR were measured, and the dissociation constant (KD) were calculated. The measurement was performed at 25° C. to 30° C.

[3] = biological target: T1, recombinant monkey TfR (r monkey TfR, …); assay: as above
Experimental: as §1, §2

[4] = biological target: human TrkB (GenBank Acc. No. NP_001018074.1) expressed in CHO cells (CHO-TrkB cells) (human, UniProt Q16620 32-822); assay: cell-based or functional assay
Chain of human TrkB (GenBank Acc. No. NP_001018074.1) expressed in CHO cells (CHO-TrkB cells) (Q16620 32-822): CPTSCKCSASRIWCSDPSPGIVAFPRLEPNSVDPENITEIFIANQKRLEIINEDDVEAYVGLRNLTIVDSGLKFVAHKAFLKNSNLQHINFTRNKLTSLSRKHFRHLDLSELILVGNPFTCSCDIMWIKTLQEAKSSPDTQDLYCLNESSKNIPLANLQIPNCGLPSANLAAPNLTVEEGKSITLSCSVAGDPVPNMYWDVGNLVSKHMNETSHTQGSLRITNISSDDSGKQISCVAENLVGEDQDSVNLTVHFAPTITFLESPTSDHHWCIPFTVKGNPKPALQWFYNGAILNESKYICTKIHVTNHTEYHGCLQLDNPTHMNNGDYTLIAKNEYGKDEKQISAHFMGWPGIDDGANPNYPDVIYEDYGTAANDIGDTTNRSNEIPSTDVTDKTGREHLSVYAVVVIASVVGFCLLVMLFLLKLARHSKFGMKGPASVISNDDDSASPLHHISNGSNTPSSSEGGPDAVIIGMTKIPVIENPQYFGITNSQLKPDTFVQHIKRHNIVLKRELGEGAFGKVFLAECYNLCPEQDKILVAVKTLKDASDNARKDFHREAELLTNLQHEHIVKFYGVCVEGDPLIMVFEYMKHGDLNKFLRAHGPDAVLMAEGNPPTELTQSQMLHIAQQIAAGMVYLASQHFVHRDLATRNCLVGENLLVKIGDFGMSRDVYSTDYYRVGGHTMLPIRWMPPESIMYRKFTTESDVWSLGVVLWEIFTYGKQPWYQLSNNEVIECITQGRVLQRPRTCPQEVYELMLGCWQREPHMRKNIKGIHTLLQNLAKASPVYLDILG

[5] = biological target: TrkB receptor on rat primary cultured neurons (corpus striatum of rat embryo) (rat, UniProt Q63604 32-821); assay: cell-based or functional assay
Chain of TrkB receptor on rat primary cultured neurons (corpus striatum of rat embryo) (Q63604 32-821): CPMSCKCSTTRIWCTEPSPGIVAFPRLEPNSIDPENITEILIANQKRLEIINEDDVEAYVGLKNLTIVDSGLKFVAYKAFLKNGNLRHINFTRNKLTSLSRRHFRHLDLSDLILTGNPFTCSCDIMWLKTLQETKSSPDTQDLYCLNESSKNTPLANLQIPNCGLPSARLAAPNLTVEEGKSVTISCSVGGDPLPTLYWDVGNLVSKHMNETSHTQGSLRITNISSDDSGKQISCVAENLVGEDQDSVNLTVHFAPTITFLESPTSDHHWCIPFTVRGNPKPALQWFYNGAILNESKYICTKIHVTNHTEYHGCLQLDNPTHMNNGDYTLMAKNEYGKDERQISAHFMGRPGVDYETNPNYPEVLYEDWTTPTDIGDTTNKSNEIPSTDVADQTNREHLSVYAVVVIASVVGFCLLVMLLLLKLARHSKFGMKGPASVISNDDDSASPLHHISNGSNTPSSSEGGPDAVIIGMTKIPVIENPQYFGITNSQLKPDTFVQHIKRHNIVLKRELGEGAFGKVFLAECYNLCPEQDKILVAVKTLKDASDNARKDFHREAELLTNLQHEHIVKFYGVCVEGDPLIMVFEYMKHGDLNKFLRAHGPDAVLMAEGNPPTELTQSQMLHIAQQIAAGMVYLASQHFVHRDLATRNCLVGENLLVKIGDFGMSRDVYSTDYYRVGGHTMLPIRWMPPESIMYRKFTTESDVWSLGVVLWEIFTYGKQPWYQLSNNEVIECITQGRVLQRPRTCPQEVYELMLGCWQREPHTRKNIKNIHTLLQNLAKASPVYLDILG

[6] = biological target: T2, recombinant human TfR (r human TfR, …); assay: BLI (OctetRED96); fusion protein captured via biotin-labeled anti-human BDNF antibody on SA biosensor, TfR in solution; remark: listed apart in the source
Experimental: (§3) Affinities of a hBDNF-anti-hTfR antibody (3N) ABD to human TfR, monkey TfR, and human serum albumin (HSA) were measured on OctetRED96 (ForteBio Corporation, a division of Pall Corporation) which is a system for biomolecular interaction analysis utilizing biolayer interferometry (BLI), as same as Example 25. The measurement was generally performed by operation manual attached to the OctetRED96.
(§4) The biotin-labeled rabbit anti-human BDNF polyclonal antibodies (anti-human BDNF antibody: PeproTech Corporation) was diluted with HBS-P+(1% BSA) (10 mM HEPES containing 150 mM NaCl, 50 μM EDTA, 0.05% Surfactant P20, and 1% BSA) to prepare 25 μg/mL of solution, and the solution was designated as ligand solution 1. A purified product of an hBDNF-anti-hTfR antibody (3N) ABD was diluted with HBS-P+, and the solution was designated as ligand solution 2. r human TfR and r monkey TfR were respectively two-fold serial diluted with HBS-P+ to prepare seven-different concentration of 0.78125 to 50 nM (0.0585 to 3.74 μg/mL). These TfR solution were designated as a TfR sample solution. The r human TfR and the r monkey TfR, those described in Example 7 were used. And, human serum albumin preparation (HSA) (blood donation albumin 25-Nichiyaku, Nihon Pharmaceutical Co., Ltd.) was two-fold serial diluted with HBS-P+ to prepare solution of seven-different concentration of 3.13 to 200 nM (0.208 to 13.3 μg/mL). The HSA solution were designated as an HSA sample solution.
(§5) The OctetRED96 was run under the condition shown in the following Table 15-3 described in Example 25 to immobilize the anti-human BDNF antibody onto the sensor. Subsequently, after the OctetRED96 was run under the condition shown in Table 16-2 to obtain data, binding interaction curve was fitted to a 1:1 binding model using the analysis software attached to the OctetRED96, the association rate constant (kon) and the dissociation rate constant (koff) of the hBDNF-anti-hTfR antibody (3N) ABD, to r human TfR, r monkey TfR, and HSA were measured, and a dissociation constant (KD) were calculated. The measurement was performed at 25° C. to 30° C.

[7] = biological target: T1, recombinant monkey TfR (r monkey TfR, …); assay: as above
Experimental: as §3, §4, §5

[8] = biological target: T3, human serum albumin preparation (HSA) (blood donation albumin 25-Nichiyaku, Nihon Pharmaceutical Co., Ltd.) (human, UniProt P02768 25-609); assay: BLI (OctetRED96); fusion protein captured via biotin-labeled anti-human BDNF antibody on SA biosensor, HSA in solution
T3 construct: mature
T3 sequence (P02768 25-609): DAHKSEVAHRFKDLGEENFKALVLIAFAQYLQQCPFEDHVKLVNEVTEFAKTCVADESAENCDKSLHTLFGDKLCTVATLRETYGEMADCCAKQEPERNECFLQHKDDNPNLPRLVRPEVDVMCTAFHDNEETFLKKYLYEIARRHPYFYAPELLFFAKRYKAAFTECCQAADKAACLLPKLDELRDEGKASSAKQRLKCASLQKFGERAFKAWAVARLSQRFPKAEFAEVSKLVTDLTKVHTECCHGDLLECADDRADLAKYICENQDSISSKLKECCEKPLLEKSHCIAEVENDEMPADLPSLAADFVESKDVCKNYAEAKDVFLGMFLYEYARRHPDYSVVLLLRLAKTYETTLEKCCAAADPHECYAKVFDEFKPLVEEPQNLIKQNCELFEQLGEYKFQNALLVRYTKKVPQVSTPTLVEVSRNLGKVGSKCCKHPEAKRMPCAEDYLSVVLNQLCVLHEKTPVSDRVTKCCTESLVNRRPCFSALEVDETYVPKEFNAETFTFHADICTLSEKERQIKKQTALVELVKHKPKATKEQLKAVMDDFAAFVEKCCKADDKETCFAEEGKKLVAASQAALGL
Experimental: as §3, §4
as §5, with “The measurement was performed at 25° C. to 30° C.” left out

B1: humanized anti-hTfR antibody No. 3N (antibody, human IgG1, kappa, V domains shown)
VH: EVQLVQSGAEVKKPGESLKISCKGSGYSFMNYWLGWVRQMPGKGLEWMGDIYPGGDYPTYSEKFKVQVTISADKSISTAYLQLSSLKASDTAMYYCARSGNYDEVAYWGQGTLVTVSS
VL: DIVMTQTPLSLSVTPGQPASISCRSSQSLVHSNGNTYLHWYLQKPGQSPQLLIYKVSNRFSGVPDRFSGSGSGTDFTLKISRVEAEDVGVYYCSQSTHVPWTFGQGTKVEIKR
notes: IgG1; Same light chain as humanized No. 3; also called Humanized anti-hTfR antibody 3N
KD relative to that of the humanized anti-hTfR antibody No. 3 [1]: ~0.033 fold
affinity relative to that of the humanized anti-hTfR antibody No. 3 [1]: ~30 fold

B3: hBDNF-anti-hTfR antibody (3N) 1 (other)
heavy: HSDPARRGELSVCDSISEWVTAADKKTAVDMSGGTVTVLEKVPVSKGQLKQYFYETKCNPMGYTKEGCRGIDKRHWNSQCRTTQSYVRALTMDSKKRIGWRFIRIDTSCVCTLTIKRGRGGGGSGGGGSGGGGSGGGGSGGGGSEVQLVQSGAEVKKPGESLKISCKGSGYSFMNYWLGWVRQMPGKGLEWMGDIYPGGDYPTYSEKFKVQVTISADKSISTAYLQLSSLKASDTAMYYCARSGNYDEVAYWGQGTLVTVSSASTKGPSVFPLAPSSKSTSGGTAALGCLVKDYFPEPVTVSWNSGALTSGVHTFPAVLQSSGLYSLSSVVTVPSSSLGTQTYICNVNHKPSNTKVDKKVEPKSCDKTHT
light: DIVMTQTPLSLSVTPGQPASISCRSSQSLVHSNGNTYLHWYLQKPGQSPQLLIYKVSNRFSGVPDRFSGSGSGTDFTLKISRVEAEDVGVYYCSQSTHVPWTFGQGTKVEIKRTVAAPSVFIFPPSDEQLKSGTASVVCLLNNFYPREAKVQWKVDNALQSGNSQESVTEQDSKDSTYSLSSTLTLSKADYEKHKVYACEVTHQGLSSPVTKSFNRGEC
notes: copies set to 2 on that ground; also called anti-hTfR antibody fusion BDNF; hBDNF-humanized anti-hTfR antibody fusion protein
Erk phosphorylation activity (EC50, nmol/L) [5]: 0.02 nmol/L
Kd [2]: 0.00742 nM
koff [2]: 3.54e-06 s⁻¹
kon [2]: 477000 M⁻¹ s⁻¹
Kd [3]: 0.794 nM
koff [3]: 0.000196 s⁻¹
kon [3]: 245000 M⁻¹ s⁻¹
BDNF activity (TrkB agonistic: EC50, nmol/L) [4]: 0.43 nmol/L

The remaining lines, values ahead:

Kd [2]: 0.251 nM
Kd [3]: 39.4 nM
BDNF activity (TrkB agonistic: EC50, nmol/L) [4]: 0.16 nmol/L
B2: hBDNF-anti-hTfR antibody (3) 1 (other)
heavy: HSDPARRGELSVCDSISEWVTAADKKTAVDMSGGTVTVLEKVPVSKGQLKQYFYETKCNPMGYTKEGCRGIDKRHWNSQCRTTQSYVRALTMDSKKRIGWRFIRIDTSCVCTLTIKRGRGSGGGGSGGGGSGGGGSGGGGSGGGGSEVQLVQSGAEVKKPGESLKISCKGSGYSFTNYWLGWVRQMPGKGLEWMGDIYPGGDYPTYSEKFKVQVTISADKSISTAYLQWSSLKASDTAMYYCARSGNYDEVAYWGQGTLVTVSSASTKGPSVFPLAPSSKSTSGGTAALGCLVKDYFPEPVTVSWNSGALTSGVHTFPAVLQSSGLYSLSSVVTVPSSSLGTQTYICNVNHKPSNTKVDKKVEPKSCDKTHT
light: B3 light

Erk phosphorylation activity (EC50, nmol/L) [5]: 0.02 nmol/L
Kd [6]: 0.0566 nM
koff [6]: 4e-05 s⁻¹
kon [6]: 707000 M⁻¹ s⁻¹
Kd [7]: 0.626 nM
koff [7]: 0.000145 s⁻¹
kon [7]: 231000 M⁻¹ s⁻¹
BDNF activity (TrkB agonistic: EC50, nmol/L) [4]: 0.3 nmol/L
Kd [8]: 13.5 nM
koff [8]: 0.000829 s⁻¹
kon [8]: 61300 M⁻¹ s⁻¹
B4: hBDNF-anti-hTfR antibody (3N) ABD (other)
heavy: HSDPARRGELSVCDSISEWVTAADKKTAVDMSGGTVTVLEKVPVSKGQLKQYFYETKCNPMGYTKEGCRGIDKRHWNSQCRTTQSYVRALTMDSKKRIGWRFIRIDTSCVCTLTIKRGRGGGGSGGGGSGGGGSGGGGSGGGGSEVQLVQSGAEVKKPGESLKISCKGSGYSFMNYWLGWVRQMPGKGLEWMGDIYPGGDYPTYSEKFKVQVTISADKSISTAYLQLSSLKASDTAMYYCARSGNYDEVAYWGQGTLVTVSSASTKGPSVFPLAPSSKSTSGGTAALGCLVKDYFPEPVTVSWNSGALTSGVHTFPAVLQSSGLYSLSSVVTVPSSSLGTQTYICNVNHKPSNTKVDKKVGGGGSGGGGSGGGGSLAEAKVLALRELDKYGVSDYYKDLIDKAKTVEGVKALIDEILAALP
light: B3 light
notes: BDNF-Fab-ABD fusion
